Laboratory results as given in PMC13013135, “[^99mTc]Tc-PSMA-HSG for PSMA-targeted Hybrid Surgical Guidance: a new addition to the PSMA-I&S/I&T family” (European Journal of Nuclear Medicine and Molecular Imaging, 2025).
Values joined by “and” are separate entries in the source; they are usually repeats but may differ in a detail not shown here. Equal entries are not always repeated. Where two headings read alike, the source gives them in different places.

How the values were obtained:
[1] = test system: PSMA expressing LNCaP cells; assay: Dual tracer internalization assay; type: cell-based, human; conditions: 60 min, 37 °C, 0.5 nM tracer, normalized to ([^125I]IBA)KuE
Procedure: Competitive binding experiments (IC50) were carried out in accordance with an established protocol using PSMA-expressing LNCaP cells and ([^125I]I-BA)KuE as standard radioligand. […] Please see the Supplementary Material for experimental details. […] The supernatant was removed, cells were washed with assay medium, and an acid wash (50 mM NaOAc in saline, pH 4.5) was performed to remove membrane-associated activity. Cells were then lysed using 1N NaOH, and internalized activity was quantified using a γ-counter. […] Tocris Bioscience, Bristol, UK) and normalized to the specific internalization observed for the radioiodinated reference compound in the same experiment. Data represent means ± SD (n=3) from three separate determinations.

mouse serum = assay: Plasma protein binding (B50), ultrafiltration, mouse serum; type: in vitro ADME
Procedure: (§1) A detailed experimental procedure is provided in the Supplementary Material. […] Briefly, protein solutions (maximum concentration: […] Samples were briefly vortexed and incubated for 30 min at 37 °C. […] The filter units were then removed from the centrifugal tubes and washed twice with 300 µL PBS to recover the protein fraction. The activity in the filtrate, filter and protein fraction were then quantified using a γ-counter. […] The percentages of radioligand bound to the respective proteins are represented as means ± standard deviation (SD) of three independent experiments.

human serum = assay: Plasma protein binding (B50), ultrafiltration, human serum; type: in vitro ADME
Procedure: as §1

in vivo = conditions: mouse, in vivo
Procedure: The biodistribution of [^99mTc]Tc-PSMA-HSG and of the reference compound [^99mTc]Tc-PSMA-I&S was investigated in LNCaP xenograft bearing NSG mice (see supplemental information).
Mice were injected intravenously with the respective ^99mTc-labeled tracer (24–34 MBq (fixed peptide dose of 1 nmol/mouse) or 3.7–7.6 MBq (fixed peptide doses of 0.1 nmol/mouse), respectively) and were sacrificed at 2 h (1 nmol-cohort) or 6 h p.i. (0.1 nmol-cohort), respectively. The organs of interest were dissected, and the activity concentration in weighed tissue samples was quantified using an AMG Automatic Gamma Counter (Hidex, Turku, Finland). Biodistribution data are given in %iD/g and represent means ± SD (groups of n = 5 animals). Statistical analysis (Multiple unpaired t-test) of biodistribution data and tumor/organ ratios was performed using GraphPad Prism (Boston, USA).
To induce LNCaP tumor growth, a suspension of LNCaP cells (approx. 5 x 10^6 cells/mouse) in 200 μl of a 1:1 mixture of serum-free DMEM and Matrigel (BD Biosciences) was injected subcutaneously into the right shoulder of male NOD scid gamma (NSG) mice (6-8 weeks, in-house breeding, Dpt. of Oncology, University of Lausanne). After approximately 9 weeks, tumor size reached 4-8 mm in diameter and the mice were used for the in vivo studies.

PSMA = PSMA (Homo sapiens, UniProt Q04609); type: in vivo; design: Five patients with a diagnosis of initial (n = 4) or biochemical recurrence of (n = 1) histologically proven prostate cancer; from tissue; host or cells: prostate cancer patients: primary tumour, lymph nodes, resected tissue sections
Chain of PSMA (Q04609 whole entry): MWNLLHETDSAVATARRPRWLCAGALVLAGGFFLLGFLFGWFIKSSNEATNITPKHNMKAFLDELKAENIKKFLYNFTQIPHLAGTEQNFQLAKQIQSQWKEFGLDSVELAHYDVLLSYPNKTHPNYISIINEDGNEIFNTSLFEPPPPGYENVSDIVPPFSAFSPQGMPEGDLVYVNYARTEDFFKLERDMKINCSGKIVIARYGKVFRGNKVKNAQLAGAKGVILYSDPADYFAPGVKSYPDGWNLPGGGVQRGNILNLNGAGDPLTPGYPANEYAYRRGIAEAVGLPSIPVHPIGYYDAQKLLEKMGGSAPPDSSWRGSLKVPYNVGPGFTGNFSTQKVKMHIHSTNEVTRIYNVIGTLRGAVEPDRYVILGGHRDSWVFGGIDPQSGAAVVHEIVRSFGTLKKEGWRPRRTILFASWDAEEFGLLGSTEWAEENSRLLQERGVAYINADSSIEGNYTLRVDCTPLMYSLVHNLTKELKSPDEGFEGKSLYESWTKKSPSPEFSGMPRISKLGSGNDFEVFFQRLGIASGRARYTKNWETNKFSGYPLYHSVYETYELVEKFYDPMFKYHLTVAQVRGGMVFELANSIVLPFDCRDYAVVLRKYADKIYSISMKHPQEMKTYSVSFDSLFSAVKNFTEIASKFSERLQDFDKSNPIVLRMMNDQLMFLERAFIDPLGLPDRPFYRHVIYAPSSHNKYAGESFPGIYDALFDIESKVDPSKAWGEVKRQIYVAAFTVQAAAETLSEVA
From the text: For all patients, radioguided surgery had been recommended by the local multidisciplinary tumor board. […] Attenuation maps were generated on the basis of low-dose CT. For a detailed protocol of imaging parameters and the dosimetry protocol please refer to the Supplementary Material. […] A scatter window ranging from 114 to 126 keV was additionally acquired for planar and SPECT imaging. For SPECT, the imaging field of view was from neck to upper thighs. At each bed position, 60 views were acquired, with a duration of 8 s each. Subsequently, images were reconstructed using an ordered subset expectation maximisation (OSEM) algorithm (2 iterations and 10 subsets) with a Butterworth filter (fc = 0.48, n = 10). Scatter and attenuation correction was applied. For whole-body planar imaging, a scan speed of 30 cm/min was employed until 60 min post-injection, after which the acquisition speed was moderated to 12 cm/min for any further data collection.

[2] = exploratory cohort, five patients
[3] = subjects with newly diagnosed PCa

C[N+]1=C(/C=C/C=C/C=C2/N(CCCCCC(=O)NCCCC[C@@H](NC(=O)[C@@H](CO)NC(=O)[C@@H](CO)NC(=O)[C@@H](CO)NC(=O)CS)C(=O)N[C@H](Cc3ccc(O)cc3)C(=O)N[C@H](Cc3ccc4ccccc4c3)C(=O)N[C@H](CCCCNC(=O)CCCCCCC(=O)NCCCC[C@H](NC(=O)N[C@@H](CCC(=O)O)C(=O)O)C(=O)O)C(=O)O)c3ccc(S(=O)(=O)[O-])cc3C2(C)C)C(C)(C)c2cc(S(=O)(=O)O)ccc21 [[^99mTc]Tc-PSMA-HSG, metal not drawn]
internalization [% of reference] [1]: 14 ± 1 % of reference | B50 MS (mouse serum): 142 ± 22 | B50 HS (human serum): 220 ± 35 | tissue uptake at 6 h (in vivo; male, NOD scid gamma (NSG), iv, 0.1 nmol/mouse, total radioactivity, biodistribution, liver): 2.5 ± 0.4 %ID/g | tissue uptake at 6 h (in vivo; male, NOD scid gamma (NSG), iv, 0.1 nmol/mouse, total radioactivity, biodistribution, lung): 2.5 ± 0.5 %ID/g | tissue uptake at 6 h (in vivo; male, NOD scid gamma (NSG), iv, 0.1 nmol/mouse, total radioactivity, biodistribution, pancreas): 0.8 ± 0.3 %ID/g | tissue uptake at 6 h (in vivo; male, NOD scid gamma (NSG), iv, 0.1 nmol/mouse, total radioactivity, biodistribution, spleen): 9.7 ± 3.8 %ID/g | tissue uptake at 6 h (in vivo; male, NOD scid gamma (NSG), iv, 0.1 nmol/mouse, total radioactivity, biodistribution, stomach): 1.1 ± 0.2 %ID/g | tissue uptake at 2 h (in vivo; male, NOD scid gamma (NSG), iv, 1 nmol/mouse, total radioactivity, biodistribution, liver): 3.3 ± 0.3 %ID/g | tissue uptake at 2 h (in vivo; male, NOD scid gamma (NSG), iv, 1 nmol/mouse, total radioactivity, biodistribution, lung): 2.8 ± 0.3 %ID/g | tissue uptake at 2 h (in vivo; male, NOD scid gamma (NSG), iv, 1 nmol/mouse, total radioactivity, biodistribution, pancreas): 0.8 ± 0.1 %ID/g | tissue uptake at 2 h (in vivo; male, NOD scid gamma (NSG), iv, 1 nmol/mouse, total radioactivity, biodistribution, spleen): 5.2 ± 1.9 %ID/g | tissue uptake at 2 h (in vivo; male, NOD scid gamma (NSG), iv, 1 nmol/mouse, total radioactivity, biodistribution, stomach): 1.6 ± 0.1 %ID/g | tissue to tissue ratio at 6 h (in vivo; male, NSG, iv, 0.1 nmol/mouse, total radioactivity): 0.12 ± 0.02 | tissue uptake at 6 h (in vivo; male, NSG, iv, 0.1 nmol/mouse, total radioactivity, biodistribution, LNCaP tumor): 19.8 ± 6.6 %ID/g | tissue uptake at 6 h (in vivo; male, NSG, iv, 0.1 nmol/mouse, total radioactivity, biodistribution, blood): 1.3 ± 0.3 %ID/g | tissue uptake at 6 h (in vivo; male, NSG, iv, 0.1 nmol/mouse, total radioactivity, biodistribution, heart): 0.7 ± 0.2 %ID/g | tissue uptake at 6 h (in vivo; male, NSG, iv, 0.1 nmol/mouse, total radioactivity, biodistribution, intestines): 1.3 ± 0.2 %ID/g | tissue uptake at 6 h (in vivo; male, NSG, iv, 0.1 nmol/mouse, total radioactivity, biodistribution, kidneys): 148 ± 17 %ID/g | tissue uptake at 6 h (in vivo; male, NSG, iv, 0.1 nmol/mouse, total radioactivity, biodistribution, muscle): 0.4 ± 0.06 %ID/g | tissue uptake at 6 h (in vivo; male, NSG, iv, 0.1 nmol/mouse, total radioactivity, biodistribution, salivary glands): 4 ± 1.2 %ID/g | tissue to tissue ratio at 2 h (in vivo; male, NSG, iv, 1 nmol/mouse, total radioactivity): 0.2 ± 0.03 | tissue uptake at 2 h (in vivo; male, NSG, iv, 1 nmol/mouse, total radioactivity, biodistribution, LNCaP tumor): 12.1 ± 0.9 %ID/g | tissue uptake at 2 h (in vivo; male, NSG, iv, 1 nmol/mouse, total radioactivity, biodistribution, blood): 2.4 ± 0.3 %ID/g | tissue uptake at 2 h (in vivo; male, NSG, iv, 1 nmol/mouse, total radioactivity, biodistribution, heart): 1.3 ± 0.2 %ID/g | tissue uptake at 2 h (in vivo; male, NSG, iv, 1 nmol/mouse, total radioactivity, biodistribution, intestines): 1 ± 0.1 %ID/g | tissue uptake at 2 h (in vivo; male, NSG, iv, 1 nmol/mouse, total radioactivity, biodistribution, kidneys): 61.7 ± 7.2 %ID/g | tissue uptake at 2 h (in vivo; male, NSG, iv, 1 nmol/mouse, total radioactivity, biodistribution, muscle): 0.5 ± 0.04 %ID/g | tissue uptake at 2 h (in vivo; male, NSG, iv, 1 nmol/mouse, total radioactivity, biodistribution, salivary glands): 4.2 ± 0.5 %ID/g | tissue uptake at 6 h (in vivo; Tumor uptake in mice): 11.8 ± 1.5 %ID/g | scintigraphy findings (PSMA; Patient #1, 53 µg): Two positive LN in the right and left external iliac region | scintigraphy findings (PSMA; Patient #2, 53 µg): Moderate tracer uptake of the primary No positive LN | scintigraphy findings (PSMA; Patient #3, 53 µg): Moderate tracer uptake of the primary No positive LN | scintigraphy findings (PSMA; Patient #4, 350 µg): No discernible tracer uptake of the primary No discernible tracer uptake in the right iliac LN | scintigraphy findings (PSMA; Patient #5, 250 µg): Moderate tracer uptake of the primary No positive LN | negative predictive value (NPV) of SPECT/CT (PSMA; [2]): 94% | positive predictive value (PPV) of SPECT/CT (PSMA; [2]): 100% | sensitivity of SPECT/CT (PSMA; [2]): 33% | specificity of SPECT/CT (PSMA; [2]): 100% | clearance in patients, visual image analysis (PSMA; human, in vivo): swift activity clearance from blood/background via rapid renal excretion | intestinal accumulation in patients (PSMA; human, in vivo): Virtually no intestinal accumulation | PET-suspicious lymph nodes positive in scintigraphy (PSMA; [3]): 2/10 | primary tumor delineated / visualized (PSMA; [3]): 3 out of 4 and 3/4
